Measurements from PMC10397247.

Key:
Experiment in all cases: two-hybrid library CCmax;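 further: natural log of median RNA to DNA barcode read ratio; higher means stronger binding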
4H3619-AA = target: T1, 4H3619-AA; conditions: mean of both orientations
T1 chain: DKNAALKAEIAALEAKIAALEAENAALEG

4H3777-AA = target: T2, 4H3777-AA; conditions: mean of both orientations
T2 chain: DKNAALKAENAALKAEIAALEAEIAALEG

4H432-AA = target: T3, 4H432-AA; conditions: mean of both orientations
T3 chain: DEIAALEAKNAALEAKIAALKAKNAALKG

P6-AA-12HGe-A = target: T4, P6-AA-12HGe-A; conditions: mean of both orientations
T4 chain: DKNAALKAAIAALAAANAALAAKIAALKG

P6-AA-12HGe-D = target: T5, P6-AA-12HGe-D; conditions: mean of both orientations
T5 chain: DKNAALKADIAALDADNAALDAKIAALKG

P6-AA-12HGe-T = target: T6, P6-AA-12HGe-T; conditions: mean of both orientations
T6 chain: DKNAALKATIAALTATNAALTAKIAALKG

P6-AA-1HAA-H = target: T7, P6-AA-1HAA-H; conditions: mean of both orientations
T7 chain: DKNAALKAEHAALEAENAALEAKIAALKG

P6-AA-1HAA-K = target: T8, P6-AA-1HAA-K; conditions: mean of both orientations
T8 chain: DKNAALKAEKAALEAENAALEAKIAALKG

P6-AA-1HAA-R = target: T9, P6-AA-1HAA-R; conditions: mean of both orientations
T9 chain: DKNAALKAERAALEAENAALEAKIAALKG

P6-AA-1HGe-H = target: T10, P6-AA-1HGe-H; conditions: mean of both orientations
T10 chain: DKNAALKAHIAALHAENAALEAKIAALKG

P6-AA-1HGe-R = target: T11, P6-AA-1HGe-R; conditions: mean of both orientations
T11 chain: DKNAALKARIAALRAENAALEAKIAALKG

P5-AA-12HGe-M = target: T12, P5-AA-12HGe-M; conditions: mean of both orientations
T12 chain: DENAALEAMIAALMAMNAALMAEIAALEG

P5-AA-12HGe-S = target: T13, P5-AA-12HGe-S; conditions: mean of both orientations
T13 chain: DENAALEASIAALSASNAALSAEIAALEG

P5-AA-1HAA-E = target: T14, P5-AA-1HAA-E; conditions: mean of both orientations
T14 chain: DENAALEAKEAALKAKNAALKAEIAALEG

P5-AA-1HAA-Y = target: T15, P5-AA-1HAA-Y; conditions: mean of both orientations
T15 chain: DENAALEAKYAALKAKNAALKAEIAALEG

P5-AA-1HGe-Y = target: T16, P5-AA-1HGe-Y; conditions: mean of both orientations
T16 chain: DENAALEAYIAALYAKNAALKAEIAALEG

4H1142-AA = target: T17, 4H1142-AA
T17 chain: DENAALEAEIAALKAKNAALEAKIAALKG

4H2143-AA = target: T18, 4H2143-AA; conditions: mean of both orientations
T18 chain: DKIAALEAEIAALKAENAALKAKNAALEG

4H2458-AA = target: T19, 4H2458-AA; conditions: mean of both orientations
T19 chain: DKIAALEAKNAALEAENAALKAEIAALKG

4H3330-AA = target: T20, 4H3330-AA; conditions: mean of both orientations
T20 chain: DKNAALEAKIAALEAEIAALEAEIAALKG

4H807-AA = target: T21, 4H807-AA; conditions: mean of both orientations
T21 chain: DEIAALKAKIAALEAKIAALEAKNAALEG

APC1434-AA = target: T22, APC1434-AA; conditions: mean of both orientations
T22 chain: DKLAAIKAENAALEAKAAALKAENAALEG

APC2237-AA = target: T23, APC2237-AA; conditions: mean of both orientations
T23 chain: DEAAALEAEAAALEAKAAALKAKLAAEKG

APC232-AA = target: T24, APC232-AA; conditions: mean of both orientations
T24 chain: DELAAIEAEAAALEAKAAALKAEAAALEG

APC8910-AA = target: T25, APC8910-AA; conditions: mean of both orientations
T25 chain: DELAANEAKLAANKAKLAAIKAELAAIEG

P6-AA-12HAA-K = target: T26, P6-AA-12HAA-K; conditions: mean of both orientations
T26 chain: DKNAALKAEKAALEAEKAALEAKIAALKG

P6-AA-12HAA-T = target: T27, P6-AA-12HAA-T
T27 chain: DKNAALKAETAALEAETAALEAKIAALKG

P6-AA-12HAA-V = target: T28, P6-AA-12HAA-V; conditions: mean of both orientations
T28 chain: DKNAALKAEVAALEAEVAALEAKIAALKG

4H2758-AA = target: T29, 4H2758-AA; conditions: mean of both orientations
T29 chain: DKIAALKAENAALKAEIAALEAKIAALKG

4H3134-AA = target: T30, 4H3134-AA; conditions: mean of both orientations
T30 chain: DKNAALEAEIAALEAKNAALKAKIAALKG

4H390-AA = target: T31, 4H390-AA; conditions: mean of both orientations
T31 chain: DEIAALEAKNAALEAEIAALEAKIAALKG

4H775-AA = target: T32, 4H775-AA; conditions: mean of both orientations
T32 chain: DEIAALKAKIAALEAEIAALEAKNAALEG

4H1109-AA = target: T33, 4H1109-AA; conditions: mean of both orientations
T33 chain: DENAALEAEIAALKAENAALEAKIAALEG

4H146-AA = target: T34, 4H146-AA; conditions: mean of both orientations
T34 chain: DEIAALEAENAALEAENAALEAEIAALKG

4H189-AA = target: T35, 4H189-AA; conditions: mean of both orientations
T35 chain: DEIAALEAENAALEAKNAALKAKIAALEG

4H2742-AA = target: T36, 4H2742-AA; conditions: mean of both orientations
T36 chain: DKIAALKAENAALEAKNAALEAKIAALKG

4H3591-AA = target: T37, 4H3591-AA; conditions: mean of both orientations
T37 chain: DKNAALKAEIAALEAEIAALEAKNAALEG

4H3666-AA = target: T38, 4H3666-AA; conditions: mean of both orientations
T38 chain: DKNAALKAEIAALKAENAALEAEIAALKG

4H497-AA = target: T39, 4H497-AA; conditions: mean of both orientations
T39 chain: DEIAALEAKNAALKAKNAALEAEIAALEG

4H2898-AA = target: T40, 4H2898-AA; conditions: mean of both orientations
T40 chain: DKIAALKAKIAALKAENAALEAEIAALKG

4H465-AA = target: T41, 4H465-AA; conditions: mean of both orientations
T41 chain: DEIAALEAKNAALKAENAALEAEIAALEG

4H535-AA = target: T42, 4H535-AA; conditions: mean of both orientations
T42 chain: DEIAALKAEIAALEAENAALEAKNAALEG

B1: 4H249-AA (peptide)
chain: DEIAALEAENAALKAKNAALKAEIAALEG
In the case of B1, the interaction score (4H3619-AA) is reported as -1.97, the interaction score (4H3777-AA) is reported as -0.457 and the interaction score (4H432-AA) is reported as -1.72.

B2: 4H1401-AA (peptide)
chain: DENAALEAKIAALKAKNAALKAEIAALEG
Work on B2 yielded an interaction score (P6-AA-12HGe-A) of -0.0521, an interaction score (P6-AA-12HGe-D) of -0.647 and an interaction score (P6-AA-12HGe-T) of 0.16. For the same binder, the interaction score (P6-AA-1HAA-H) was 2.06, the interaction score (P6-AA-1HAA-K) was 2.04 and the interaction score (P6-AA-1HAA-R) was 1.83. The interaction score (P6-AA-1HGe-H) was 1.77 and the interaction score (P6-AA-1HGe-R) was 1.53.

B3: 4H3606-AA (peptide)
chain: DKNAALKAEIAALEAENAALEAKIAALKG
For B3, the interaction score (P5-AA-12HGe-M) was 1.77, the interaction score (P5-AA-12HGe-S) was -0.516 and the interaction score (P5-AA-1HAA-E) was 1.24. For the same binder, the interaction score (P5-AA-1HAA-Y) was 2.23 and the interaction score (P5-AA-1HGe-Y) was 2.36.

B4: 4H1142-AA (peptide)
chain: DENAALEAEIAALKAKNAALEAKIAALKG
B4 gave an interaction score (4H1142-AA) of 0.123.

B5: 4H1845-AA (peptide)
chain: DENAALKAKIAALEAKNAALEAKIAALEG
B5 was tested, and the interaction score (4H2143-AA) was -1.68, the interaction score (4H2458-AA) was -1.6 and the interaction score (4H3330-AA) was -1.3. The interaction score (4H807-AA) was -1.58, the interaction score (APC1434-AA) was -1.56 and the interaction score (APC2237-AA) was -1.46. For the same binder, the interaction score (APC232-AA) was -2.09 and the interaction score (APC8910-AA) was -1.69.

B6: 4H1385-AA (peptide)
chain: DENAALEAKIAALKAKIAALKAEIAALEG
B6 was tested, and the interaction score (P6-AA-12HAA-K) was 2.03, the interaction score (P6-AA-12HAA-T) was 1.61 and the interaction score (P6-AA-12HAA-V) was 2.15.

B7: 4H1350-AA (peptide)
chain: DENAALEAKIAALKAEIAALEAKIAALKG
With B7 the interaction score (4H2758-AA) was -0.48, the interaction score (4H3134-AA) was 0.186 and the interaction score (4H390-AA) was 0.523. It also gave an interaction score (4H775-AA) of 1.63.

B8: 4H1064-AA (peptide)
chain: DENAALEAEIAALEAKIAALEAKNAALKG
Binder B8 has an interaction score (4H1109-AA) of -1.24, an interaction score (4H146-AA) of -1.5 and an interaction score (4H189-AA) of -1.4. The interaction score (4H2742-AA) was -1.78, the interaction score (4H3591-AA) was 0.232 and the interaction score (4H3666-AA) was -1.27. For the same binder, the interaction score (4H497-AA) was -1.3.

B9: 4H1257-AA (peptide)
chain: DENAALEAENAALKAKIAALKAEIAALEG
In the case of B9, the interaction score (4H2898-AA) is reported as -1.42, the interaction score (4H465-AA) is reported as -0.726 and the interaction score (4H535-AA) is reported as -1.14.
